Reference: article PMC11439917 (Nature Communications, 2024)

Target: human full-length LRRK2 (leucine-rich repeat kinase 2), purified (human, UniProt Q5S007 1-2527)
Assay: cryo-EM structure

Chain of human full-length LRRK2 (leucine-rich repeat kinase 2), purified (Q5S007 whole entry): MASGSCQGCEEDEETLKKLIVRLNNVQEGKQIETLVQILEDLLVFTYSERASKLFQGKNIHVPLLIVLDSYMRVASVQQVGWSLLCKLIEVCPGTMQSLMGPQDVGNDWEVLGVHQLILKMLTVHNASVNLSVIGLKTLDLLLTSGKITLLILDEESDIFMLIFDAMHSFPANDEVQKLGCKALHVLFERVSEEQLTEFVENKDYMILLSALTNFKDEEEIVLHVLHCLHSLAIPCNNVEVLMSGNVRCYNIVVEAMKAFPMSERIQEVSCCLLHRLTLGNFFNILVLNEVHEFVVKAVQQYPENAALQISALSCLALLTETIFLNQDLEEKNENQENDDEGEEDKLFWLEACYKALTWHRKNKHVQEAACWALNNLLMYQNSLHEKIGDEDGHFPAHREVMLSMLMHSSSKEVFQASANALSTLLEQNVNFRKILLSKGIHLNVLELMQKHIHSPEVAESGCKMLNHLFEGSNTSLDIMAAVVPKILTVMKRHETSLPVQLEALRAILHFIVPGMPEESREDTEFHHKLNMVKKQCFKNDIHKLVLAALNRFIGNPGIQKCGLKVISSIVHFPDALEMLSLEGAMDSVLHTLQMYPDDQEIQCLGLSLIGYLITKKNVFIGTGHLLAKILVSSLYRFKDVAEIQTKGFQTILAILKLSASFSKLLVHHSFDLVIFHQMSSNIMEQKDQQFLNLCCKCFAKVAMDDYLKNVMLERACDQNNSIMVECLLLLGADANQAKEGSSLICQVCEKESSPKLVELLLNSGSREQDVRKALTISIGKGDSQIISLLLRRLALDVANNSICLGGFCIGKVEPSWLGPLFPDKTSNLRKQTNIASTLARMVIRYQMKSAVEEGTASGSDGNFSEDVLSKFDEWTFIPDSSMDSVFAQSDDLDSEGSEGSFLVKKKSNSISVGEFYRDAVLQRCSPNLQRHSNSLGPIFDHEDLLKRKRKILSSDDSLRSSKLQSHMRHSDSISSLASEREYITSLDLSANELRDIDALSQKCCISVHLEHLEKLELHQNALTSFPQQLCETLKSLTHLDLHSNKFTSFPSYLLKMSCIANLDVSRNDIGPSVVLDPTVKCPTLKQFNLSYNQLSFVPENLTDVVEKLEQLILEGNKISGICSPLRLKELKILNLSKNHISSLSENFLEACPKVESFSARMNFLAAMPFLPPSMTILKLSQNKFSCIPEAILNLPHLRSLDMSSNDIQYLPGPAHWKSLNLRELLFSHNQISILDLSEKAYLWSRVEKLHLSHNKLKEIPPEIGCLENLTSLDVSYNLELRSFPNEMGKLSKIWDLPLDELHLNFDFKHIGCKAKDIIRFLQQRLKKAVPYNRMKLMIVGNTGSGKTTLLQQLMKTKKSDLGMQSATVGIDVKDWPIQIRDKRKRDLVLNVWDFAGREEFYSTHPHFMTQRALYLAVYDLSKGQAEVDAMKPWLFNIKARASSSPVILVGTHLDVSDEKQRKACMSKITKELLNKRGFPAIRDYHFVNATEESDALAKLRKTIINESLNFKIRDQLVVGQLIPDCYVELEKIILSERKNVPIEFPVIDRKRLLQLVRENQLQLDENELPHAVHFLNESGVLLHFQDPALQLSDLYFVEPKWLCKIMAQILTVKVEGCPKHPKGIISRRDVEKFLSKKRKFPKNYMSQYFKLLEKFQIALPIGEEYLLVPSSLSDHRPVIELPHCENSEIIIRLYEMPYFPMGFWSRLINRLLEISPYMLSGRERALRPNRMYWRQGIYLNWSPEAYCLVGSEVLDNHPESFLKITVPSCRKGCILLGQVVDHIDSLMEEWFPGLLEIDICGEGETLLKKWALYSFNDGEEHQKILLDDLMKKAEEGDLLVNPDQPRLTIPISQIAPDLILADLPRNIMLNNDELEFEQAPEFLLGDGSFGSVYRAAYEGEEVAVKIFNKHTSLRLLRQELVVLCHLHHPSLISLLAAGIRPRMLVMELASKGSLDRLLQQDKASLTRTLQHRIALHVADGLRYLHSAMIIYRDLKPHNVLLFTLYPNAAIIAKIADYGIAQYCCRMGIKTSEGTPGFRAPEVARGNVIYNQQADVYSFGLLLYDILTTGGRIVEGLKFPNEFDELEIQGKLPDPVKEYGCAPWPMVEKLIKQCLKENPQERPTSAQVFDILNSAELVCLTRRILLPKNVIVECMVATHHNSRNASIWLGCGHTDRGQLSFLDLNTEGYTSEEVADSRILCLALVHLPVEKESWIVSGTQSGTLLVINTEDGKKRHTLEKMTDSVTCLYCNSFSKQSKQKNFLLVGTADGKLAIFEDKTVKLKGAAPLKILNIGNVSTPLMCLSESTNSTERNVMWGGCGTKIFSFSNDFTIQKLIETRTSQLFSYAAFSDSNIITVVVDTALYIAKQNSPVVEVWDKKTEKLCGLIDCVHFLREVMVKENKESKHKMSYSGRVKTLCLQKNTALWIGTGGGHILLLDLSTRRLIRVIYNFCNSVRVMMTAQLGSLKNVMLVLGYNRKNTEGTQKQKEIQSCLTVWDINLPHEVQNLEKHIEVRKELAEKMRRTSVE

B1: human RAB12 (residues 36-211) Q101L, GppNHp-bound (domain or fragment)
chain: PRPADFKLQVIIIGSRGVGKTSLMERFTDDTFCEACKSTVGVDFKIKTVELRGKKIRLQIWDTAGLERFNSITSAYYRSAKGIILVYDITKKETFDDLPKWMKMIDKYASEDAELLLVGNKLDCETDREITRQQGEKFAQQITGMRFCEASAKDNFNVDEIFLKLVDDILKKMPLD
binding result: binds
